Measured values from patent US12391751B2, “Antibody against advanced glycation end products and use thereof” (Bloom Technology Corporation, priority 2018, dated 2025).

Legend:
[1] = biological target: T1, reaction of the SJ-5 antibody with A-peak-BSA (Bos taurus, UniProt P02769); assay: Cross-competition with HRP-labeled SJ-5 antibody by competitive ELISA (Example 33); type: binding; conditions: competitor antibody 0.049 to 50 μg/mL
T1 construct: made in house
Experimental: A solution of A-peak-BSA prepared into 1 μg/mL in a coating solution was added at 100 μL/well to a 96-well microtiter plate (Costar) and incubated overnight at 4° C.
Each well after the immobilization treatment was washed three times with a washing solution (300 μL), and PBS containing 0.05% Tween 20 (PBS-T) and containing 0.5% gelatin dissolved therein (200 μL) was added thereto and left standing at room temperature for 1 hour.
The PB-1 antibody, a mouse IgG isotype control (Ctrl-mIgG, Thermo Fisher Scientific Inc.), and the anti-GA-pyridine antibody 2A2 (Cosmo Bio Co., Ltd.) were each diluted with PBS-T containing 0.1% gelatin to prepare 4-fold dilution series (0.049 to 50 μg/mL). Also, a HRP-labeled SJ-5 antibody (Example 4) was diluted 10000-fold with PBS-T containing 0.1% gelatin.
Each well treated with the blocking solution was washed three times with a washing solution (300 μL), and the sample solutions of 4-fold dilution series (50 μL each) and the HRP-labeled SJ-5 antibody dilution solution (50 μL) were added thereto, stirred with a plate mixer for 2 minutes, and then incubated at room temperature for 1 hour. […]
Absorbance was measured at a dominant wavelength of 450 nm and a sub-wavelength of 650 nm with a microplate reader (Cytation 5, BioTek Instrument Inc.), and the absorbance at the sub-wavelength was subtracted from the absorbance at the dominant wavelength.

[2] = biological target: A-peak-BSA (Bos taurus, UniProt P02769); assay: Dissociation constant measurement of PB-1, Biacore T200 (Example 26); conditions: Biacore T200, CM5; ligand A-peak-BSA; PB-1 0.1953 to 50 nM; 1:1 binding model
Experimental: The dissociation constant (Kd value) of the monoclonal antibody PB-1 was measured by the following approach: A-peak-BSA was diluted with a 10 mM sodium acetate solution (pH 5.0) to prepare a ligand solution with a final concentration of 50 μg/mL. Biacore T200 (GE Healthcare Japan Corp.) was used for the immobilization of the ligand and the calculation of the KD value. The ligand solution was immobilized (final amount immobilized: 72 RU) onto sensor chip CM5 (GE Healthcare Japan Corp.) using an amine coupling kit (GE Healthcare Japan Corp.). Subsequently, PB-1 antibody dilution solutions from 0.1953 to 50 nM were prepared with a running buffer solution HBS-P+ (GE Healthcare Japan Corp.), and a sensorgram was obtained.
1:1 binding was adopted to a fitting model, and the sensorgram was analyzed.

[3] = system: HUVEC; assay: Neutralization test of vascular endothelial cell lumen formation inhibition using PB-1 (Example 35); type: cell-based, human; conditions: PB-1 pre-reacted with Glycer-AGEs-BSA; HUVEC, 8 hours
Experimental: Matrigel matrix was prepared by the same operation as in Example 14.
10 μL of Glycer-AGEs-BSA (10 mg/mL) prepared in Example 1, 10 μL of phosphate-buffered saline (PBS, FUJIFILM Wako Pure Chemical Corp.), and 90 μL of the PB-1 antibody (10 mg/mL) or a control antibody (10 mg/mL) were added to a 1.5 mL tube (Watson) and left standing at room temperature for 10 minutes. Then, a supernatant was recovered by centrifugation at 14000 rpm for 15 minutes using a centrifuge (Thermo Fisher Scientific Inc.).
(3) A lumen formation inhibition test was conducted by the same operation as in Example 14. As shown in the drawing, HUVEC was confirmed to form a lumen in the Matrigel matrix in the control BSA addition group. […] Furthermore, this inhibition of lumen formation was neutralized by the reaction solution of PB-1.

[4] = biological target: Fru-AGEs-BSA (Bos taurus, UniProt P02769); assay: Specificity of SJ-5 by competitive ELISA (Example 7); type: binding; conditions: GAL13-BSA or Glycer-AGEs-BSA immobilized, POD-labeled SJ-5 0.4 μg/mL
[5] = biological target: T2, GAL13-BSA (Bos taurus, UniProt P02769); assay: Reactivity of novel monoclonal antibody by competitive ELISA (Example 6); type: binding
T2 construct: purchased Sigma-Aldrich Co. LLC
Experimental: GAL13-BSA was added at 100 μL/well with a concentration of 1 μg/mL and immobilized overnight at 4° C. The plate was washed three times with PBS containing 0.05% (v/v) Tween 20 (PBS-T) and then blocked with a carbonate buffer solution (pH 9.5) containing 0.5% (w/v) gelatin for 1 hour. After preparation of a POD-labeled SJ-5 antibody (0.4 μg/mL) and an anti-glyceraldehyde-derived AGEs polyclonal antibody (6 μg/mL) as a control, 10-fold serial dilution solutions (50 μL each) of GAL13-BSA or control BSA and the POD-labeled SJ-5 antibody or the anti-glyceraldehyde-derived AGEs polyclonal antibody as a control (50 μL) were added to the antigen-immobilized plate, stirred with a plate mixer, and then left standing at room temperature for 1 hour. After washing, an o-phenylenediamine solution (100 μL) prepared into 0.5 mg/mL with a 0.1 M citrate-phosphate buffer solution (pH 5.0) containing 0.02% (w/v) hydrogen peroxide was added to each well and left standing at 25° C. for 10 minutes. Then, color reaction was terminated by the addition of a 1 M sulfuric acid solution (50 μL) to each well. Then, absorbance at 490 nm was measured with a microplate reader.

[6] = biological target: T2, GAL13-BSA; assay: Reactivity of novel monoclonal antibody by direct ELISA (Example 5); type: binding; conditions: immobilized GAL13-BSA 1 μg/mL, POD-labeled antibody dilution series from 4 μg/mL
Experimental: BSA modified with the novel structure derived from Glycer-AGEs (GAL13-BSA) was added at 100 μL/well with a concentration of 1 μg/mL and immobilized overnight at 4° C. The plate was washed three times with PBS containing 0.05% (v/v) Tween 20 (PBS-T) and then blocked with PBS-T containing 0.5% (w/v) gelatin for 1 hour. The POD-labeled novel monoclonal antibody SJ-5 prepared in Example 4 and the anti-glyceraldehyde-derived AGEs polyclonal antibody as a control were serially diluted into 4-fold dilutions from 4 μg/mL to 0.06254 μg/mL to prepare dilution series, which were then added at 100 μL/well to the antigen-immobilized plate and left standing for 1 hour. After washing, an o-phenylenediamine solution (100 μL) prepared into 0.5 mg/mL with a 0.1 M citrate-phosphate buffer solution (pH 5.0) containing 0.02% (w/v) hydrogen peroxide was added to each well and left standing at 25° C. for 10 minutes. Then, color reaction was terminated by the addition of a 1 M sulfuric acid solution (50 μL) to each well. Then, absorbance at 490 nm was measured with a microplate reader.

T2 sequence (P02769 25-607): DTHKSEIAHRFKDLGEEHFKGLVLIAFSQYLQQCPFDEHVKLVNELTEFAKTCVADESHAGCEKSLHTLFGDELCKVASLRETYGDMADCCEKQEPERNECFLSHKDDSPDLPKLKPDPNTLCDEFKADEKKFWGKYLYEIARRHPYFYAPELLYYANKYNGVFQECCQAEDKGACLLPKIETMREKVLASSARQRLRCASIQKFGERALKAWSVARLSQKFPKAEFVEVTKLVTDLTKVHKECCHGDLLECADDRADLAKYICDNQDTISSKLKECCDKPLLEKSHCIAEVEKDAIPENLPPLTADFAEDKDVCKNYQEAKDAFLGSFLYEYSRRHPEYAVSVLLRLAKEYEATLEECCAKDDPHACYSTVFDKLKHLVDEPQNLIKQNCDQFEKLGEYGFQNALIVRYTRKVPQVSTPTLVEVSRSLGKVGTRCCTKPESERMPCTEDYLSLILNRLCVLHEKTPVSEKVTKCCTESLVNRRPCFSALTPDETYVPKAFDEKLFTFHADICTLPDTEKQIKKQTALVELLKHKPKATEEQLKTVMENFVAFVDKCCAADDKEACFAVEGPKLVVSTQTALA
Sequence of Fru-AGEs-BSA (P02769 25-607): as above
Sequence of A-peak-BSA (P02769 25-607): as above
T1 sequence (P02769 25-607): as above

Row | Molecule | change in absorbance of HRP-labeled SJ-5 binding to A-peak-BSA (cross-competition) [1] | Kd [2] [nM] | neutralization of lumen formation inhibition by Glycer-AGEs-BSA [3] | specificity: reactivity with Fru-AGEs-BSA [4] | antibody concentration giving similar results, lower than that of the polyclonal antibody ([5]; competitive ELISA, versus anti-glyceraldehyde-derived AGEs polyclonal antibody) [times] | reactivity with GAL13-BSA in the competitive method ([5]; immobilized GAL13-BSA, POD-labeled SJ-5 0.4 μg/mL, polyclonal antibody 6 μg/mL) | reactivity with GAL13-BSA (absorbance at 490 nm) [6]
1 | PB-1: mouse monoclonal antibody raised against A-peak-BSA; heavy-chain variable region SEQ ID NO 18, light-chain variable region SEQ ID NO 22 (antibody, listed as Mus musculus, V domains shown) VH: EVRLQQSGPELVKPGTSVKISCKASGYSFTGYYMHWVKQSPVKSLEWIGRIIPYNGATSYNQNFKDKASLTVDKSSRTAYMDLHSLTSEDSAVYYCARSRYYGRAPYYFDYWGQGTTLTVSS VL: DVVVTQTPLSLPVSLGDQASISCRSSQSIVHSNGNTYLEWYLQKPGQSPKLLIYKVSNRFSGVPDRISGSGSGTDFTLKISRVEAGDLGVYSCFQGSHVPFTFGSGTKLEIK | decreased in a PB-1 concentration-dependent manner | 4.15 | neutralized | – | – | – | –
2 | SJ-5: mouse monoclonal antibody raised against GAL13-MSA; heavy-chain variable region SEQ ID NO 4, light-chain variable region SEQ ID NO 8 (antibody, listed as Mus musculus, V domains shown) VH: EVMLVESGGRLVKPGGSLKLSCAASGFTFSSYGMSWVRQTPEKRLEWVATISGGGSYTYYPDSVKGRFTISRDNVKNNLYLQMSSLRSEDTALYYCARRGAYGDYGWFAYWGQGTLVTVSA VL: DIVLTQSPATLSVTPGDSVSLSCRASQSINNNLHWYQQKSHESPRLLIKCASQSISGIPSRFSGSGSGTDFTLSINSVETEDFGMYFCQQSNSWPLTFGAGTKLELK | – | – | – | negative | 15 | react favorably | react favorably
